Experimental data published in US20260097113A1 (Pfizer, published 2026).

T1: RSV F protein of subtype A comprising a polypeptide of SEQ ID NO: 1 and a polypeptide of SEQ ID NO: 2 (RSV subtype A, UniProt P11209 137-513; P03420 26-109)
T1 construct: Stabilized prefusion F trimer made of three F2-F1 heterodimers; Produced recombinantly in CHO cells; also called RSV A; RSVA
T1 chain 1: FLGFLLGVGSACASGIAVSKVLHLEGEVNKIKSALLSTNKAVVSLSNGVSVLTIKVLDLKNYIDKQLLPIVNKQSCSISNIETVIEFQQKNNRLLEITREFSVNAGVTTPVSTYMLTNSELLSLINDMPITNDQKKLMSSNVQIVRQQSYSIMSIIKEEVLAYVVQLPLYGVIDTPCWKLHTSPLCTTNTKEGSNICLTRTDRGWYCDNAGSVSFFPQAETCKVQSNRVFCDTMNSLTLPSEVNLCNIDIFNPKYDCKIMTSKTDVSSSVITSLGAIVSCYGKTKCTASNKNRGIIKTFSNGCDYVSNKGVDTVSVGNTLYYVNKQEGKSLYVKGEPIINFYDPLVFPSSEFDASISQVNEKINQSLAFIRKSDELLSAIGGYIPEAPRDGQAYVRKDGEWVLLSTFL
T1 chain 2: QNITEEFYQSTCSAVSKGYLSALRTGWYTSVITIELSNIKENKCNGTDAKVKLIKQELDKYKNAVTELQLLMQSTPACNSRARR


Assays:
[1] = biological target: RSV A + RSV B bivalent composition (RSV subtype A; RSV subtype B); test: AM14 Fab titration by SEC; Low-Fast cycle; 1 M 2-8°C
[2] = biological target: RSV A + RSV B bivalent composition (RSV subtype A; RSV subtype B); test: AM14 Fab titration by SEC; Target cycle; 3 M 25°C
[3] = biological target: T1, RSV F protein of subtype A comprising a …; test: AM14 ELISA; F12 (pH 8, 100 mM NaCl, 9.0% sucrose); 2 wk 25°C
[4] = biological target: T1, RSV F protein of subtype A comprising a …; test: AM14 ELISA; F17 (pH 7, 50 mM NaCl, 4.5% trehalose); 1 wk 5°C
[5] = biological target: T1, RSV F protein of subtype A comprising a …; test: AM14 ELISA; F19 (pH 7, 50 mM NaCl, 3% trehalose + 3% mannitol); 2 wk 5°C
[6] = biological target: T1, RSV F protein of subtype A comprising a …; test: AM14 ELISA; F18 (pH 7, 50 mM NaCl, 3% sucrose + 3% mannitol); 2 wk 5°C
[7] = biological target: T1, RSV F protein of subtype A comprising a …; test: AM14 ELISA; F2 (pH 8, 0 mM NaCl, 0% sucrose); 1 wk 25°C
[8] = biological target: T1, RSV F protein of subtype A comprising a …; test: AM14 ELISA; F17 (pH 7, 50 mM NaCl, 4.5% trehalose); T0
[9] = biological target: T1, RSV F protein of subtype A comprising a …; test: AM14 ELISA; F2 (pH 8, 0 mM NaCl, 0% sucrose); 2 wk 5°C
[10] = biological target: T1, RSV F protein of subtype A comprising a …; test: AM14 ELISA; F13 (pH 7, 100 mM NaCl, 4.5% sucrose); 2 wk 5°C
[11] = biological target: T1, RSV F protein of subtype A comprising a …; test: AM14 ELISA; F6 (pH 7, 0 mM NaCl, 4.5% sucrose); 1 wk 25°C
[12] = biological target: T1, RSV F protein of subtype A comprising a …; test: AM14 ELISA; F4 (pH 6, 50 mM NaCl, 4.5% sucrose); T0
[13] = biological target: T1, RSV F protein of subtype A comprising a …; test: AM14 ELISA; F11 (pH 7, 50 mM NaCl, 9.0% sucrose); 2 wk 25°C
[14] = biological target: T1, RSV F protein of subtype A comprising a …; test: AM14 ELISA; F1 (pH 8, 100 mM NaCl, 0% sucrose); T0
[15] = biological target: T1, RSV F protein of subtype A comprising a …; test: AM14 ELISA; F16 (pH 6, 0 mM NaCl, 0% sucrose); 1 wk 5°C

Row | Molecule | Prefusion Content (%) [1] [%] | Prefusion Content (%) [2] [%] | AM14 prefusion content (%), relative to standard [3] [%] | AM14 prefusion content (%), relative to standard [4] [%] | AM14 prefusion content (%), relative to standard [5] [%] | AM14 prefusion content (%), relative to standard [6] [%] | AM14 prefusion content (%), relative to standard [7] [%] | AM14 prefusion content (%), relative to standard [8] [%] | AM14 prefusion content (%), relative to standard [9] [%] | AM14 prefusion content (%), relative to standard [10] [%] | AM14 prefusion content (%), relative to standard [11] [%] | AM14 prefusion content (%), relative to standard [12] [%] | AM14 prefusion content (%), relative to standard [13] [%] | AM14 prefusion content (%), relative to standard [14] [%] | AM14 prefusion content (%), relative to standard [15] [%]
1 | AM14 Fab | 53 | 71 |  |  |  |  |  |  |  |  |  |  |  |  | 
2 | AM14 (trimeric prefusion specific antibody of the AM14 ELISA) (antibody, V domains shown, Antibody as used in the AM14 ELISA, detected with an HRP-labeled secondary antibody) VH: EVQLVESGGGVVQPGRSLRLSCAASGFSFSHYAMHWVRQAPGKGLEWVAVISYDGENTYYADSVKGRFSISRDNSKNTVSLQMNSLRPEDTALYYCARDRIVDDYYYYGMDVWGQGATVTVSS VL: DIQMTQSPSSLSASVGDRVTITCQASQDIKKYLNWYHQKPGKVPELLMHDASNLETGVPSRFSGRGSGTDFTLTISSLQPEDIGTYYCQQYDNLPPLTFGGGTKVEIKR |  |  | 55 | 59 | 75 | 85 | 58 | 86 | 75 | 75 | 102 | 57 | 82 | 120 | 65
